Drawing on patent US20240018237A1 (SICHUAN KELUN BIOTECH BIOPHARMACEUTICAL, published 2024), this text covers EC50 for 16 molecules.

Assay [1] concerns the target T1, human ROR1 (full-length, on the cell surface) (human, UniProt Q01973 30-937).
T1 construct: whole, on cells; the tumour cell lines carry their own ROR1; also called Ba/F3-ROR1 cells; Jeko-1
In words: flow cytometry, Ba/F3-ROR1 cells. On the procedure:
(§1) The affinities of the anti-human ROR1 humanized antibodies to Ba/F3-ROR1, Jeko-1, HT-29 and A549 cells were detected by flow cytometry. The specific experimental steps were as follows: the BaBF3-ROR1, Jeko-1, HT-29 and A549 cells were incubated with the purified humanized antibodies of different concentration gradients on ice for 30 minutes, and the anti-ROR1 antibody UC961 with human IgG1 and the anti-TNP antibody were used as positive and negative controls, respectively.

Assay [2] deals with T1, human ROR1 (full-length, on the cell …). Description: flow cytometry, Jeko-1 cells. On the procedure: as §1
(Flow cytometry measures light scatter and fluorescence of single cells or particles in a stream.)

For assay [3] the target is unchanged. Description: flow cytometry, HT-29 cells. On the procedure: as §1
Assay [4] has the same target. In words: flow cytometry, A549 cells. On the procedure: as §1

T1 sequence (Q01973 30-937): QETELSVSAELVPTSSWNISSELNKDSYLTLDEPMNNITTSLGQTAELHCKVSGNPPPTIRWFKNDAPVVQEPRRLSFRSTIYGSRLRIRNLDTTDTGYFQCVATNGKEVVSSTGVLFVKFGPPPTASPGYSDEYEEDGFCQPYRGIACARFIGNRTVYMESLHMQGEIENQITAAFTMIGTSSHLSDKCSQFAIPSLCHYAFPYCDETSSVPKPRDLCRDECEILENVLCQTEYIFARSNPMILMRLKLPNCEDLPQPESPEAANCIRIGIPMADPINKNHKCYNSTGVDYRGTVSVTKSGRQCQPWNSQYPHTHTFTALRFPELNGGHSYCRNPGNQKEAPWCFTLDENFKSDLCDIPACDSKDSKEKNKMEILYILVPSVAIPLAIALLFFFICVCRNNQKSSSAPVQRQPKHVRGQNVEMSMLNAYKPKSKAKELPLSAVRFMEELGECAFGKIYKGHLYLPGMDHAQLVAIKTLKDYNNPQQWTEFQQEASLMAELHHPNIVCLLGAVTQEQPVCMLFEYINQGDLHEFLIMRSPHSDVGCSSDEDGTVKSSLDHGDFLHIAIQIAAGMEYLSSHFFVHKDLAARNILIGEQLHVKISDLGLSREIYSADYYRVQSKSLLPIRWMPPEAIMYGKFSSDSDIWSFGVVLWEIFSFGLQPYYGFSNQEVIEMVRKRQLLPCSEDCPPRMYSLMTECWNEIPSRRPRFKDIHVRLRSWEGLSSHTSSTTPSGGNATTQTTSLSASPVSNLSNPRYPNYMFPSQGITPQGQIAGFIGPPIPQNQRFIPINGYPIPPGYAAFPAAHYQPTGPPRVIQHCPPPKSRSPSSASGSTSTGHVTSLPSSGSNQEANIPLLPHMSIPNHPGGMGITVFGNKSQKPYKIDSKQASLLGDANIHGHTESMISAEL

B1: 3D8-Hu46 (antibody, human IgG1, kappa, V domains shown)
VH: EVQLVESGGGLVQPGGSLRLSCAASGFTFSSYAMSWVRQAPGKGLEWVSSINSGGSTYYPDSVKGRFTISRDNSKNTLYLQMNSLRAEDTAVYYCARVNYYGYGDYAMDYWGQGTLVTVSS
VL: DIQMTQSPSSLSASVGDRVTITCQASQDINSYLSWFQQKPGKSPKTLIYRANRLVTGVPSRFSGSGSGTDYTFTISSLQPEDIATYYCLQYDEFPYTFGGGTKLEIKR
notes: humanized, human IgG1 / kappa
What is called EC50 is the concentration needed to bring the measured effect to its halfway point. With B1, the half-maximal effective concentration (EC50) in assay [1] stood at 0.39 nM; in assay [2], 0.08 nM; in assay [3], 0.35 nM; in assay [4], 0.2 nM.

B2: 3D8-Hu85 (antibody, human IgG1, kappa, V domains shown)
VH: EVQLVESGGGLVQPGGSLRLSCAASGFTFSSYAMSWVRQAPEKRLEWVSSISSGGSTYYPDSVKGRFTISRDNSKNTLYLQMNSLRAEDTAVYYCARVNYYGYGDYAMDYWGQGTLVTVSS
VL: DIQMTQSPSSLSASVGDRVTITCQASQDINSYLSWFQQKPGKAPKTLIYRANRLVTGVPSRFSGSGSGTDFTFTISSLQPEDIATYYCLQYDEFPYTFGGGTKLEIKR
notes: humanized, human IgG1 / kappa
Regarding B2, the EC50 in assay [1] came to 0.25 nM; in assay [2], 0.11 nM; in assay [3] it was 0.25 nM; in assay [4], 0.45 nM.

B3: 3D8-Hu55 (antibody, human IgG1, kappa, V domains shown)
VH: EVQLVESGGGLVQPGGSLRLSCAASGFTFSSYAMSWVRQAPGKGLEWVSSINSGGSTYYPDSVKGRFTISRENAKNSLYLQMNSLRAGDTAVYYCARVNYYGYGDYAMDYWGQGTLVTVSS
VL: DIQMTQSPSSLSASVGDRVTITCQASQDINSYLSWFQQKPGKAPKTLIYRANRLVTGVPSRFSGSGSGTDFTFTISSLQPEDIATYYCLQYDEFPYTFGGGTKLEIKR
notes: humanized, human IgG1 / kappa
B3: the EC50 in assay [1] is 0.33 nM; in assay [2], 0.04 nM; in assay [3] it was 0.17 nM; in assay [4] it was 0.23 nM.

B4: 3D8-Hu26 (antibody, human IgG1, kappa, V domains shown)
VH: EVQLVESGGGLVQPGGSLRLSCAASGFTFSSYAMSWVRQAPGKGLEWVASINSGGSTYYPDSVKGRFTISRDNAKNSLYLQMNSLRAEDTAVYYCARVNYYGYGDYAMDYWGQGTLVTVSS
VL: DIQMTQSPSSLSASVGDRVTITCQASQDINSYLSWFQQKPGKSPKTLIYRANRLVTGVPSRFSGSGSGTDYTFTISSLQPEDIATYYCLQYDEFPYTFGGGTKLEIKR
notes: humanized, human IgG1 / kappa
On to B4, for which the EC50 in assay [1] turned out to be 0.29 nM; in assay [2], 0.08 nM; in assay [3] it was 0.26 nM; in assay [4], 0.2 nM.

B5: 3D8-Hu97 (antibody, human IgG1, kappa, V domains shown)
VH: EVQLVESGGGLVQPGGSLRLSCAASGFTFSSYAMSWVRQAPEKRLEWVSSISNGGSTYYPDSVKGRFTISRDNSKNTLYLQMNSLRAEDTAVYYCARVNYYGYGDYAMDYWGQGTLVTVSS
VL: DIQMTQSPSSLSASVGDRVTITCQASQDISNYLSWFQQKPGKSPKTLIYRANRLVTGVPSRFSGSGSGTDYTFTISSLQPEDIATYYCLQYDEFPYTFGGGTKLEIKR
notes: humanized, human IgG1 / kappa
As for B5, the EC50 in assay [1] was 0.3 nM; in assay [2] it was 0.43 nM; in assay [3], 0.52 nM; in assay [4], 0.58 nM.

B6: 3D8-HuC44 (antibody, human IgG1, kappa, V domains shown)
VH: EVQLVESGGGLVQPGGSLRLSCAASGFTFSSYAMSWVRQAPGKGLEWVSSINSGGSTYYPDSVKGRFTISRDNSKNTLYLQMNSLRAEDTAVYYCARVNYYGYGDYAMDYWGQGTLVTVSS
VL: DIQMTQSPSSLSASVGDRVTITCQASQDISNYLTWFQQKPGKSPKTLIHRANRLVTGVPSRFSGSGSGTDFTFTISSLQPEDIATYYCLQYDEFPYTFGGGTKVEIKR
notes: humanized, human IgG1 / kappa
As to B6, the concentration giving a half-maximal response (EC50) in assay [1] turned out to be 0.28 nM; in assay [2], 0.03 nM; in assay [3] it was 0.16 nM; in assay [4], 0.18 nM.

B7: 3D8-Hu87 (antibody, human IgG1, kappa, V domains shown)
VH: EVQLVESGGGLVQPGGSLRLSCAASGFTFSSYAMSWVRQAPEKRLEWVSSISSGGSTYYPDSVKGRFTISRDNSKNTLYLQMNSLRAEDTAVYYCARVNYYGYGDYAMDYWGQGTLVTVSS
VL: DIQMTQSPSSLSASVGDRVTITCQASQDISNYLSWFQQKPGKSPKTLIYRANRLVTGVPSRFSGSGSGTDYTFTISSLQPEDIATYYCLQYDEFPYTFGGGTKLEIKR
notes: humanized, human IgG1 / kappa
Turning to B7, the EC50 was found to be 0.21 nM in assay [1], 0.17 nM in assay [2], 0.27 nM in assay [3] and 0.55 nM in assay [4].

B8: 3D8-Hu56 (antibody, human IgG1, kappa, V domains shown)
VH: EVQLVESGGGLVQPGGSLRLSCAASGFTFSSYAMSWVRQAPGKGLEWVSSINSGGSTYYPDSVKGRFTISRENAKNSLYLQMNSLRAGDTAVYYCARVNYYGYGDYAMDYWGQGTLVTVSS
VL: DIQMTQSPSSLSASVGDRVTITCQASQDINSYLSWFQQKPGKSPKTLIYRANRLVTGVPSRFSGSGSGTDYTFTISSLQPEDIATYYCLQYDEFPYTFGGGTKLEIKR
notes: humanized, human IgG1 / kappa
On to B8, for which the EC50 in assay [1] worked out at 0.33 nM; in assay [2], 0.09 nM; in assay [3], 0.29 nM; in assay [4] it was 0.3 nM.

B9: 3D8-Hu86 (antibody, human IgG1, kappa, V domains shown)
VH: EVQLVESGGGLVQPGGSLRLSCAASGFTFSSYAMSWVRQAPEKRLEWVSSISSGGSTYYPDSVKGRFTISRDNSKNTLYLQMNSLRAEDTAVYYCARVNYYGYGDYAMDYWGQGTLVTVSS
VL: DIQMTQSPSSLSASVGDRVTITCQASQDINSYLSWFQQKPGKSPKTLIYRANRLVTGVPSRFSGSGSGTDYTFTISSLQPEDIATYYCLQYDEFPYTFGGGTKLEIKR
notes: humanized, human IgG1 / kappa
B9: the EC50 in assay [1] is 0.3 nM; in assay [2] it was 0.05 nM; in assay [3], 0.28 nM; in assay [4] it was 0.28 nM.

B10: 3D8-Hu45 (antibody, human IgG1, kappa, V domains shown)
VH: EVQLVESGGGLVQPGGSLRLSCAASGFTFSSYAMSWVRQAPGKGLEWVSSINSGGSTYYPDSVKGRFTISRDNSKNTLYLQMNSLRAEDTAVYYCARVNYYGYGDYAMDYWGQGTLVTVSS
VL: DIQMTQSPSSLSASVGDRVTITCQASQDINSYLSWFQQKPGKAPKTLIYRANRLVTGVPSRFSGSGSGTDFTFTISSLQPEDIATYYCLQYDEFPYTFGGGTKLEIKR
notes: humanized, human IgG1 / kappa
B10: the EC50 worked out at 0.33 nM in assay [1], 0.08 nM in assay [2], 0.2 nM in assay [3] and 0.19 nM in assay [4].

B11: 3D8-Hu96 (antibody, human IgG1, kappa, V domains shown)
VH: EVQLVESGGGLVQPGGSLRLSCAASGFTFSSYAMSWVRQAPEKRLEWVSSISNGGSTYYPDSVKGRFTISRDNSKNTLYLQMNSLRAEDTAVYYCARVNYYGYGDYAMDYWGQGTLVTVSS
VL: DIQMTQSPSSLSASVGDRVTITCQASQDINSYLSWFQQKPGKSPKTLIYRANRLVTGVPSRFSGSGSGTDYTFTISSLQPEDIATYYCLQYDEFPYTFGGGTKLEIKR
notes: humanized, human IgG1 / kappa
Take B11: the EC50 stood at 0.3 nM in assay [1], 0.11 nM in assay [2], 0.3 nM in assay [3] and 0.54 nM in assay [4].

B12: 3D8-Hu25 (antibody, human IgG1, kappa, V domains shown)
VH: EVQLVESGGGLVQPGGSLRLSCAASGFTFSSYAMSWVRQAPGKGLEWVASINSGGSTYYPDSVKGRFTISRDNAKNSLYLQMNSLRAEDTAVYYCARVNYYGYGDYAMDYWGQGTLVTVSS
VL: DIQMTQSPSSLSASVGDRVTITCQASQDINSYLSWFQQKPGKAPKTLIYRANRLVTGVPSRFSGSGSGTDFTFTISSLQPEDIATYYCLQYDEFPYTFGGGTKLEIKR
notes: humanized, human IgG1 / kappa
As for B12, the EC50 is 0.29 nM in assay [1], 0.07 nM in assay [2], 0.23 nM in assay [3] and 0.22 nM in assay [4].

B13: 3D8-Hu27 (antibody, human IgG1, kappa, V domains shown)
VH: EVQLVESGGGLVQPGGSLRLSCAASGFTFSSYAMSWVRQAPGKGLEWVASINSGGSTYYPDSVKGRFTISRDNAKNSLYLQMNSLRAEDTAVYYCARVNYYGYGDYAMDYWGQGTLVTVSS
VL: DIQMTQSPSSLSASVGDRVTITCQASQDISNYLSWFQQKPGKSPKTLIYRANRLVTGVPSRFSGSGSGTDYTFTISSLQPEDIATYYCLQYDEFPYTFGGGTKLEIKR
notes: humanized, human IgG1 / kappa
For the molecule B13, the EC50 came out at 0.2 nM in assay [1], 0.04 nM in assay [2], 0.27 nM in assay [3] and 0.91 nM in assay [4].

B14: 3D8-Hu47 (antibody, human IgG1, kappa, V domains shown)
VH: EVQLVESGGGLVQPGGSLRLSCAASGFTFSSYAMSWVRQAPGKGLEWVSSINSGGSTYYPDSVKGRFTISRDNSKNTLYLQMNSLRAEDTAVYYCARVNYYGYGDYAMDYWGQGTLVTVSS
VL: DIQMTQSPSSLSASVGDRVTITCQASQDISNYLSWFQQKPGKSPKTLIYRANRLVTGVPSRFSGSGSGTDYTFTISSLQPEDIATYYCLQYDEFPYTFGGGTKLEIKR
notes: humanized, human IgG1 / kappa
Consider B14, for which the EC50 in assay [1] amounted to 0.28 nM; in assay [2], 0.08 nM; in assay [3] it was 0.29 nM; in assay [4], 0.31 nM.

B15: 3D8-Hu57 (antibody, human IgG1, kappa, V domains shown)
VH: EVQLVESGGGLVQPGGSLRLSCAASGFTFSSYAMSWVRQAPGKGLEWVSSINSGGSTYYPDSVKGRFTISRENAKNSLYLQMNSLRAGDTAVYYCARVNYYGYGDYAMDYWGQGTLVTVSS
VL: DIQMTQSPSSLSASVGDRVTITCQASQDISNYLSWFQQKPGKSPKTLIYRANRLVTGVPSRFSGSGSGTDYTFTISSLQPEDIATYYCLQYDEFPYTFGGGTKLEIKR
notes: humanized, human IgG1 / kappa
Take B15: the EC50 came out at 0.37 nM in assay [1], 0.13 nM in assay [2], 0.28 nM in assay [3] and 0.27 nM in assay [4].

B16: 3D8-Hu95 (antibody, human IgG1, kappa, V domains shown)
VH: EVQLVESGGGLVQPGGSLRLSCAASGFTFSSYAMSWVRQAPEKRLEWVSSISNGGSTYYPDSVKGRFTISRDNSKNTLYLQMNSLRAEDTAVYYCARVNYYGYGDYAMDYWGQGTLVTVSS
VL: DIQMTQSPSSLSASVGDRVTITCQASQDINSYLSWFQQKPGKAPKTLIYRANRLVTGVPSRFSGSGSGTDFTFTISSLQPEDIATYYCLQYDEFPYTFGGGTKLEIKR
notes: humanized, human IgG1 / kappa
On to B16, for which the EC50 in assay [1] was 0.32 nM; in assay [2], 0.13 nM; in assay [3], 0.36 nM; in assay [4], 0.56 nM.
